# Assay results: paper PMC4100090, “A Simple Three-Step Method for Design and Affinity Testing of New Antisense Peptides: An Example of Erythropoietin” (International Journal of Molecular Sciences, 2014)
# T1: Erythropoietin P2 epitope peptide (Homo sapiens)
# T1 chain: LKLYTGEACRTGDR
# Experiments:
# [1] = circular dichroism spectroscopy; assay type: physicochemical; conditions: 1 mg/mL peptide, phosphate buffer 0.1 M, pH = 7.4, 25 °C, 1 cm cuvette, averages of five scans; negative peak around 200 nm
# Protocol: The circular dichroism spectra were measured with Jasco J-815 CD spectrometer equipped with thermostated cell holder in a rectangular 1 cm cuvette (Jasco Inc., Easton, MD, USA). Conditions: concentration of peptides = 1 mg/mL, phosphate buffer = 0.1 M, pH = 7.4, temperature = 25 °C. Spectra are presented as averages of five scans, and corrected for buffer spectrum.
# [2] = target: T1, Erythropoietin P2 epitope peptide; test: tryptophan fluorescence titration
# [3] = target: T1, Erythropoietin P2 epitope peptide; test: microscale thermophoresis
Molecule,secondary structure by CD spectroscopy [1],Kd [2],Kd [3]
LKLYTGEACRTGDR,random coil structure,,
DFDIWPLRTAWPLS [EPO-P2 antisense peptide],,850 µM,816 µM
